Test results reported in patent US20150239980A1 (NEOTOPE BOSCIENCES, published 2015).
Changes are numbered by the printed parent chain.

T1: human MCAM (melanoma cell adhesion molecule) expressed on transfected CHO cells (human, UniProt P43121 24-646)
T1 construct: also called hMCAM; CD146
T1 chain: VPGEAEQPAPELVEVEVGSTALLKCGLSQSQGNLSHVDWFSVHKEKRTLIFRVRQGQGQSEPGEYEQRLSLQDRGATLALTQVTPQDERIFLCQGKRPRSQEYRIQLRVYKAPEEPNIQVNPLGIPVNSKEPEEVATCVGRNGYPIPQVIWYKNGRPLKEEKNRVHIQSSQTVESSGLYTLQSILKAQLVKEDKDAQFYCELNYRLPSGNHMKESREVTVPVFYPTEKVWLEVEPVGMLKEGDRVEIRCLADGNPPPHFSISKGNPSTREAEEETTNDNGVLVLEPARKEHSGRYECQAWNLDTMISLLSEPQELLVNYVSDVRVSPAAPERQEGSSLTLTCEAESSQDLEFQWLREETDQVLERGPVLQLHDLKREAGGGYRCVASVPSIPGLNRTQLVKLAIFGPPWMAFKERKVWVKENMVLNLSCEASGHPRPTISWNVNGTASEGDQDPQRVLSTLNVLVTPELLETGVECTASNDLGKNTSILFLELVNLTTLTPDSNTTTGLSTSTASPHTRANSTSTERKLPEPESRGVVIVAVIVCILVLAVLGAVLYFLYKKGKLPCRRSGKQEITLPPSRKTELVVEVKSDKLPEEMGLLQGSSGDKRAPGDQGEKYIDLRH

T2: recombinant hMCAM-His (human, UniProt P43121 24-559)
T2 construct: not shown: His tag
T2 chain: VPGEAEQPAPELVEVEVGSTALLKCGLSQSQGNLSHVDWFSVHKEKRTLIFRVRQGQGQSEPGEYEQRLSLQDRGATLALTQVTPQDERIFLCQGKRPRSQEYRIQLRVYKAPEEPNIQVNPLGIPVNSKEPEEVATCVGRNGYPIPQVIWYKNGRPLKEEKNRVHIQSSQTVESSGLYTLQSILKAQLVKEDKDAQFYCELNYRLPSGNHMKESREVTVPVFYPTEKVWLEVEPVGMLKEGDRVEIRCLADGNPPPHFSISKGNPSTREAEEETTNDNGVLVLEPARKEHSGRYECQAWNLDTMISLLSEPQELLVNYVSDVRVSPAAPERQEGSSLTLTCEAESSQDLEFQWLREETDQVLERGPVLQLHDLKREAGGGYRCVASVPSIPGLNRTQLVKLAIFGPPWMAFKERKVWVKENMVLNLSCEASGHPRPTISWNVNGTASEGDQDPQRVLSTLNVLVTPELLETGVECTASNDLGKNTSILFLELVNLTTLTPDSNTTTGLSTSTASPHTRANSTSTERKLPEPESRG

B1: h2107_VH1 + h2107_VL2 (antibody, human IgG1, V domains shown)
VH: QVTLKESGPVLVKPTETLTLTCTVSGFSLTSNGVSWVRQPPGKALEWIAAISSGGSTYYNSAFKSRLTISRDTSKSQVVLTMTNMDPVDTATYYCARHRPFYFDYWGQGTLVTVSS
VL: DIQMTQSPSSLSASVGDRVTITCKGSQNIYKSLAWFQLKPGKVPKLLIYDANSLQTGIPSRFSGSGSGTDFTLTISSLQPEDVATYYCQQYYSGYTFGGGTKVEIK
notes: also called VH1VL2
B2: h2107_VH2 + h2107_VL2 (antibody, human IgG1, V domains shown)
VH: B1 VH with T68S
VL: B1 VL
notes: also called h2107VH2VL2; VH2VL2
B3: rat anti-human MCAM monoclonal antibody clone 2107.4.10 (antibody, V domains shown)
VH: QVQLKESGPGLVQSSQTLSLTCTVSGFSLTSNGVSWVRQPPGKGLEWIAAISSGGSTYYNSAFKSRLSISRNTSKSQVLLKMNSLQTEDTGMYFCARHRPFYFDYWGQGVMVTVSS
VL: DIQVTQSPSLLSASVGDRVTLNCKGSQNIYKSLAWFRLKRGEAPKLLIYDANSLQTGIPSRFSGSGSGTDFTLTITSLQPEDVATYFCQQYYSGYTFGAGTKLELK
notes: rat hybridoma antibody; elsewhere '83 or 84'); also called rodent 2107; murine 2107.4.10.18 anti-MCAM antibody

Experiments:
[1] = target: T1, human MCAM (melanoma cell adhesion …); assay: laminin/FACS on hMCAM CHO cells, competitor laminin 411; Expt#1; vs rodent 2107
Protocol: (§1) Following incubation for 30-45 minutes, the cells were washed and anti-laminin conjugated to AF650 (NovusBio) was added to detect the bound laminin. The cells were run on a flow cytometer to measure the laminin binding signal.

[2] = target: T1, human MCAM (melanoma cell adhesion …); assay: laminin/FACS on hMCAM CHO cells, competitor laminin 411; Expt#2; reference row with 1.0 is chimeric 2107
Protocol: as §1

recombinant hMCAM-His [3] = target: T2, recombinant hMCAM-His; assay: ForteBio Octet Red, hMCAM-His analyte; Forte column 2; vs rodent 2107
Protocol: (§2) The affinities were measured using the ForteBio Octet Red. Anti-human Fc sensors were used to capture the humanized antibodies, and several concentrations of hMCAMHis analyte were used to determine the affinity using a 1:1 fitting model.

recombinant hMCAM-His [4] = target: T2, recombinant hMCAM-His; assay: ForteBio Octet Red, hMCAM-His analyte; Expt. #2; vs rodent 2107
Protocol: as §2

recombinant hMCAM-His [5] = target: T2, recombinant hMCAM-His; assay: ForteBio Octet Red, hMCAM-His analyte; Expt. #1; vs rodent 2107
Protocol: as §2

recombinant hMCAM-His [6] = target: T2, recombinant hMCAM-His; assay: competitive ELISA on hMCAM-His, competitor biotinylated rodent or chimeric 2107; Expt. #1; vs rodent 2107
Protocol: (§3) ELISA plates were coated with recombinant hMCAM-His, and blocked with casein buffer to prevent non-specific binding. Biotinylated rodent or chimeric antibody was added at a subsaturating concentration, in the presence or absence of 3× increasing concentrations of unlabeled competitor (humanized antibody, rodent, or chimeric). After washing to remove unbound antibody, streptavidin HRP was added to allow detection of the biotinylated antibody. The ELISA was developed with TMB substrate and the OD450 was measured. The IC50 of the unlabeled competitor was determined using the GraphPad Prism5 software.

recombinant hMCAM-His [7] = target: T2, recombinant hMCAM-His; assay: summary of ForteBio and competitive ELISA on hMCAM-His; vs rodent 2107
Protocol: as §3, §2

[8] = target: T1, human MCAM (melanoma cell adhesion …); assay: summary of laminin blocking assay on hMCAM CHO cells, competitor laminin 411; vs rodent 2107
Protocol: as §1

recombinant hMCAM-His [9] = target: T2, recombinant hMCAM-His; assay: competitive ELISA on hMCAM-His, competitor biotinylated rodent or chimeric 2107; vs rodent 2107
Protocol: as §3

recombinant hMCAM-His [10] = target: T2, recombinant hMCAM-His; assay: competitive ELISA on hMCAM-His, competitor biotinylated rodent or chimeric 2107; Expt. #2; vs rodent 2107
Protocol: as §3

recombinant hMCAM-His [11] = target: T2, recombinant hMCAM-His; assay: ForteBio Octet Red, hMCAM-His analyte; Forte column 1; vs rodent 2107
Protocol: as §2

[12] = target: T1, human MCAM (melanoma cell adhesion …); assay: flow cytometry, human MCAM CHO cells preincubated with antibody, competitor recombinant human laminin 411 at 20 ug/ml
Protocol: The 87 independent mouse fusion clones and 26 independent rat fusion clones described in Example 10 above as being capable of (i) binding to human MCAM, and (ii) blocking the interaction between human MCAM and the α-4 chain of laminin were further characterized as follows. First, IC50 quantitation for the ability of the monoclonal antibody to block the binding of human MCAM to the α-4 chain of laminin was determined as follows. CHO cells expressing human MCAM were incubated with an anti-human MCAM antibody (at various concentrations) for 30 minutes at 4 degrees Celsius. […] Unbound laminin was then washed away, and the laminin bound to the surface of the cells was detected with fluorescently labeled anti-laminin antibodies. After washing, the amount of laminin bound to the surface was detected by flow cytometry, and IC50s were calculated based on the mean fluorescent intensity.
These six anti-MCAM monoclonal antibody clones are herein referred to as (i) the mouse anti-human MCAM monoclonal clones 1174.1.3, 1414.1.2, 1415.1.1, and 1749.1.3, and (ii) the rat anti-human MCAM monoclonal antibody clones 2120.4.19 and 2107.4.10. […] As such, each of these specific monoclonal antibodies was very capable of binding to human MCAM and inhibiting the interaction of cell-expressed human MCAM with its α-4 laminin binding ligand.

Binder | fold over rodent (blocking, laminin/FACS) [1] | fold over rodent (blocking, laminin/FACS) [2] | fold over rodent (Forte affinity) (recombinant hMCAM-His [3]) | fold over rodent (Forte affinity) (recombinant hMCAM-His [4]) | fold over rodent (Forte affinity) (recombinant hMCAM-His [5]) | fold over rodent (competitive ELISA) (recombinant hMCAM-His [6]) | fold reduction in affinity compared to the rodent (recombinant hMCAM-His [7]) | fold reduction in potency compared to the rodent [8] | fold over rodent (competitive ELISA) (recombinant hMCAM-His [9]) | fold over rodent (competitive ELISA) (recombinant hMCAM-His [10]) | fold over rodent (Forte affinity) (recombinant hMCAM-His [11]) | IC50 [12]
B1 | 1.9 fold | 1.4 fold | 2.8 fold | 3.4 fold | 2.37 fold | 1.29 fold | < 3 fold | < 3 fold | 1.4 fold | 1.32 fold | 3 fold | –
B2 | 1.4 fold | 1.5 fold | 2.9 fold | 3.58 fold | 2.54 fold | 1.32 fold | < 3 fold | < 3 fold | 1.3 fold | 1.48 fold | 2.7 fold | –
B3 | 1 fold | – | 1 fold | 1 fold | 1 fold | 1 fold | – | – | 1 fold | 1 fold | 1 fold | 0.29 µg/mL
